# According to publication PMC9696579 (Nature structural & molecular biology, 2022):
# Where no end group is shown, it is not given here. 3xPEG = linker of three PEG units
# Legend:
# [1] = target: human PKA-Cα (PKA catalytic subunit alpha), purified, used in fluorescence polarization (human, UniProt P17612 1-351); assay: fluorescence polarisation
# [2] = target: mouse PKA-Cα (PKA catalytic subunit alpha), purified (mouse, UniProt P05132 1-351); assay: fluorescence polarisation
binder,measurement,setting,value
{FAM-3xPEG}-SADVSSAWAQHVTKMVARRGAILP [FAM-labeled standard SMO PKI peptide (SMO residues 615–638)],Kd,[1],823 nM
same,Kd,[2],911 nM
